According to patent US20150160214A1, “Quantitation of Cellular Adhesion Dynamics Across Immobilized Receptors Under Rheological Shear Flow” (Mayo Foundation for Medical Education and Research, priority 2013, published 2015):
“Also recorded” adds a separate entry of the source.

Tests used:
[1] = molecular target: T1, platelet GPIbα (Homo sapiens, UniProt P07359); assay: Platelet adhesion to surface captured disulfide-intact A1 and RCAM A1 under shear flow (Example 2); assay type: cell-based
T1 construct: endogenous in cells; host or cells: platelets in citrated whole blood of normal healthy volunteer donors
Procedure: The interaction of disulfide-intact A1 and of RCAM A1 with platelets was studied by immobilizing the proteins via the 6×His-Tag on Cellix biochips in which the internal channel surface was coated with a Cu2+ chelating chemistry. A 5 μM concentration of protein was immobilized in the biochip and citrated whole blood was perfused at a shear rate of 800 s−1 (FIG. 11B). This perfusion was followed by TBS buffer and after red blood cells cleared the channel, the shear was decremented to 100 s−1 or incremented to 9000 s−1 every two minutes at logarithmic intervals. Surface bound platelets were allowed to equilibrate at a given shear rate for 50 s and a 60 s video at 24 frames per second was recorded and analyzed as described in the methods. The internal channel surface lacking immobilized A1 domain was completely inert to platelets.
At each shear rate, platelet mean pause times and mean translocation velocities were calculated from the X-Y trajectories of moving platelets as described in the methods. Approximately 1000 platelet trajectories were analyzed at each shear rate (FIGS. 11B to 11D). The mean pause times were also calculated from the pause time survival fraction obtained from the cumulative integral of the pause time distribution (FIG. 11B) (Thomas:2006). The survival fraction exponentially decreases with faster decay rates as shear increases. Fitting the survival fraction with a bi-exponential decay function results in the apparent rate constants and amplitudes as a function of shear rate (FIG. 11C).
The determination and analysis of platelet pause times and instantaneous translocation velocities over surface captured A1 and RCAM A1 was performed as previously described (Tischer:2013). Here, the inventor used the Cellix Mims Evo syringe pump controlled by VenaFluxAssay (www.cellixltd.com). Vena8™ CGS biochips were custom designed with 800 μm width by 80 μm height microchannels bonded to glass slides with a Cu^2+ chelated PEG surface serviced by Microsurfaces Inc. (www.proteinslides.com/histag.html) to which the A1 and RCAM A1 in TBS were captured by the 6×His-Tag at a total concentration of 5 μM. Citrated whole blood was obtained from the informed consent of healthy volunteer donors with approval from the Mayo Clinic Institutional Review Board and 100 μL was perfused over the surface captured A1 domains at […]. The shear was increased or decreased in a stepwise manner to measure the dynamics of platelet adhesion at high and low shear. After allowing the flow chamber to equilibrate for 50 s at each shear rate, 1 min movies were recorded at 24 frames per second in phase contrast at 200× magnification with 2×2 pixel binning on a Zeiss AxioCam Mrm camera (6.45 μm/px) attached to a Zeiss Axio Observer.D1 inverted microscope. Tracking analysis was performed using MediaCybernetics ImagePro® Premier (www.mediacy.com/index.aspx?page=IP\_Premier) The distance travelled in the direction of flow was calculated from the coordinate data for each platelet as a function of time using √{square root over ((xt−x0)^2)}, where x0 is the coordinates of a platelet on the first frame of the movie and xt is the coordinate on subsequent frames of the movie. These trajectories were differentiated into instantaneous velocities using a Savitzky-Golay algorithm (Savitzky:1964) with a five data point window size and a second order polynomial implemented into a Mathematica (www.wolfram.com/mathematica) notebook written in our lab. Trajectories were retained for statistical analysis if the platelet was present for ≧1 s and travelled a total distance greater than 1 Distance travelled in pixels (px) was converted to (μm) using 6.45 μm/px*2/200=0.0645 μm/px. Pause times were determined by the amount of time (sec) a platelets velocity was 0±4 px/s≅0±0.23 μm/s, within the noise. Data are reported as mean velocities and pause times attained by individual platelets averaged over all platelets analyzed. […]

[2] = Secondary structure contribution calculated from CD-spectra (CDNN); assay type: physicochemical; settings: calculated from CD-spectra, CDNN
Procedure: Fluorescence and circular dichroism spectra of A1 and of RCAM A1 were measured to compare the basic spectroscopic properties of the two protein variants (FIG. 13). The fluorescence spectrum of native A1 has a relatively low intensity with λmax of ˜345 nm. In presence of 2 M GdnHCl the fluorescence intensity increases as the interior of the protein becomes solvent accessible and a red shift of the spectrum to ˜351 nm occurs. […] Nevertheless, RCAM A1 is still retains significant secondary structure content in solution; the distribution of which is summarized in Table 1. In the near UV, the CD of disulfide-intact A1 show a well-defined spectral banding pattern between 260 and 300 nm indicating significant tertiary structure content that is absent in RCAM A1.
(§1) Urea and GdnHCl induced unfolding of A1 and of RCAM A1 at 25° Celsius was monitored via CD at 222 nm on an Aviv Biomedical Model 420C circular dichroism spectrometer. A 1 mm quartz cuvette and protein concentrations of 5 or 10 μM were used. Samples were equilibrated in their urea or GdnHCl containing buffer at 25° Celsius overnight. CD-signal was averaged for 5 to 10 min using an integration time of 1 s. CD-spectra were measured at 20° Celsius using 0.1 or 1 mm quartz cells with a step width of 1 nm between 190 and 260 nm with an integration time of 20 s and a bandwidth of 1 nm. CD-spectra in the near UV range (260-360 nm) were recorded using a 5 cm quartz cell with a 120 s integration time. Transition curves and protein spectra were corrected for the CD Signal of the corresponding buffer.

[3] = GdnHCl- and urea-induced unfolding at 25° C. by circular dichroism (Example 2); assay type: physicochemical; settings: GdnHCl, CD
Procedure: The thermodynamic stability of A1 and of RCAM A1 was determined from GdnHCl and urea induced unfolding measured via CD and FL at 25° Celsius (FIG. 14). […] Complete unfolding of A1 and of RCAM A1 occurs in GdnHCl but not in urea. However, in presence of urea, a small expansion of RCAM A1 compared to A1 in its intermediate state is observed.
as §1

[4] = Irreversible thermal denaturation by CD, intrinsic fluorescence and ANS fluorescence (Example 2); assay type: physicochemical
Procedure: The unfolding of disulfide-intact A1 and RCAM A1 was also monitored via CD at 222 nm, intrinsic protein fluorescence at 280 nm/359 nm and ANS fluorescence at 350 nm/495 nm as a function of temperature.
CD thermalscans were recorded between 10 and 95° Celsius at 222 nm with a protein concentration of 1 μM in a 1 cm quartz cell under moderate stirring. Prior to each measurement protein samples were equilibrated at 10° Celsius for 10-15 min in order to obtain a stable baseline. The scanrate for all Thermalscans was 2° Celsius/min. The integration time for each data point was 20 s, the bandwidth 1 nm. All measured CD data were converted into mean molar ellipticities per amino acid residue.
Thermalscans monitoring protein fluorescence were recorded at an emission wavelength of 359 nm after excitation at 280 nm using a protein concentration of 2 μM in a 1 cm quartz cell under moderate stirring. ANS-Thermalscans were recorded at 495 nm after Excitation at 350 nm using 1 μM protein and 100 μM ANS. Prior to any performed thermalscan samples were equilibrated for 10-15 min. The scanrate was 2° Celsius/min. At each temperature between 10 or 20° Celsius and 95° Celsius relative fluorescence intensity was collected for 4 s and averaged.

[5] = Acrylamide quenching of tryptophan fluorescence (Stern-Volmer); assay type: physicochemical; settings: buffer, 20° Celsius
Procedure: This was also confirmed via acrylamide induced tryotophan fluorescence quenching performed with an excitation wavelength of 295 nm.
Initially a quenching determination was performed with disulfide-intact A1 at 20° Celsius and at 1° Celsius in order to distinguish between static and collisional quenching. […] Clear evidence for collisional quenching could be obtained for the A1-domain since the Stern-Volmer constant decreased from 2.6±0.03 to 2.2±0.03 M−1, FIG. 16A, ruling out a static quenching mechanism.
Acrylamide quenching of tryptophan was performed using an excitation wavelength of 295 nm. After the addition of a certain amount of buffered acrylamide solution the protein solution was equilibrated for ˜5 min and then a fluorescence spectrum between 320 and 400 nm was recorded. Stern-Volmer constants were determined from the fluorescence intensity at 359 nm using the Stern-Volmer equation as described by Lakowicz (Lakowicz:2006)
where KD is the Stern-Volmer quenching constant and KD-1 is the concentration of acrylamide at which F0/F=2 and 50% of the fluorescence intensity is quenched.

[6] = Solubility (observation); assay type: physicochemical
[7] = molecular target: T2, Recombinant human vWF A1-1261 (amino acids D1261-P1471), N-terminal truncated variant (human, UniProt P04275 1261-1471); assay: thermal unfolding by Trp fluorescence at 2 °C/min; value without peptide
T2 construct: Lacks the linker residues Q1238-E1260; also called truncated A1
From the text: (§2) The only way to examine such a stabilization using spectroscopy was the measurement of thermal unfolding via fluorescence. Since the N-terminal peptide also contains a single tyrosine residue, the excitation wavelength was changed to λ=295 nm in order to measure tryptophan fluorescence and the effect of the peptide on the unfolding of the A1-domain was observed indirectly. […] Thermal scans were also done in the presence of a peptide with the same amino acid composition, but a scrambled sequence. The inset of FIG. 7A compares the raw fluorescence thermal scans in the presence of 300 μM scrambled and N-terminal peptides. Unfolding in the presence of excess scrambled peptide was equivalent to unfolding in the absence of either peptide. […] Fitting the enthalpy data to a simple single site binding model yields a dissociation constant of ≈46±6 μM.

[8] = molecular target: T2, Recombinant human vWF A1-1261 (amino …); assay: thermal unfolding by Trp fluorescence at 2 °C/min; value at saturating peptide
From the text: as §2

[9] = molecular target: T2, Recombinant human vWF A1-1261 (amino …); assay: thermal unfolding by Trp fluorescence, 0.02-300 µM peptide; value without peptide
From the text: as §2

[10] = molecular target: T2, Recombinant human vWF A1-1261 (amino …); assay: thermal unfolding by Trp fluorescence, 0.02-300 µM peptide; value at saturating peptide
From the text: as §2

[11] = molecular target: T3, Recombinant human vWF A1-1238 (amino acids Q1238-P1471) (human, UniProt P04275 1238-1471); assay: unfolding enthalpy from fluorescence thermal scans of A1-1238 against total peptide concentration
T3 construct: captured on Cu2+ chelate surfaces by the His tag in the flow chamber assays; also called WT A1; disulfide-intact A1; not shown: N-terminal 6xHis-Tag from the Qiagen pQE-9 vector

[12] = molecular target: T2, Recombinant human vWF A1-1261 (amino …); assay: unfolding enthalpy from fluorescence thermal scans of 2 µM A1-1261 against total peptide concentration
From the text: as §2

[13] = molecular target: T2, Recombinant human vWF A1-1261 (amino …); assay: thermal unfolding enthalpy of 2 µM A1-1261 (Trp fluorescence) against peptide concentration, single site binding model
From the text: as §2

Molecule	Total number of platelets interacting, relative to disulfide-intact A1 [1]	Velocity of a platelet translocating on the domain ([1]; 1025 s−1)	Platelet translocation on surface-immobilized domain ([1]; all applied shear rates, up to 9000 s−1)	% α-Helix [2]	% β-sheet [2]	cm, I ⇄ D [3]	m-value, I ⇄ D [3]	ΔG^0, I ⇄ D [3]	Cooperative thermal unfolding transition ([4]; CD, intrinsic fluorescence and ANS fluorescence)	Temperature at which protein aggregation begins in thermal scan ([4]; absence of urea)	Stern-Volmer constant [5]	Solubility [6]	apparent TM of A1-1261 without and with saturating peptide [7]	apparent TM of A1-1261 without and with saturating peptide [8]	unfolding enthalpy of A1-1261 without and with saturating peptide [9]	unfolding enthalpy of A1-1261 without and with saturating peptide [10]	binding result [11]	EC50 (read off the curve) [12]	Kd [13]
RCAM A1: vWF A1 domain (Q1238-P1471) with disulfide bond reduced and carboxyamidated; molten globule model of intermediate state	less, by approximately half	statistically zero	did not translocate across the surface at all applied shear rates; also recorded: firm adhesion with no platelet translocation	25%	22%	3.83 ± 0.03 M	−7.49 ± 0.49 kJ/mol/M	6.857 ± 0.452 kcal/mol	absent	~40 ° Celsius	5.6 ± 0.4 M⁻¹	low solubility							
H-QEPGGLVVPPTDAPVSPTTLYVE-OH (Synthetic peptide; also called free N-terminal peptide; N-terminal linker peptide) [N-terminal peptide (QEPGGLVVPPTDAPVSPTTLYVE) corresponding to vWF residues Q1238-E1260]													53 ° Celsius	55.5 ° Celsius	47.1 kcal/mol	57.8 kcal/mol	no binding (tested: 100 µM)	~30 µM	~46 µM
